Earlier results, collected in article PMC10532679.

Assays:
[1] = target: PKA-C (Homo sapiens) (UniProt P17612)
[2] = target: PKA-C (Homo sapiens) (UniProt P17612); remark: listed apart in the source

Ki [1]: < 1 nM | Kd [2]: 0.1 nM
Substance: PKA-RII (from UniProt P13861)
